Laboratory results taken from patent US20050277167A1, “Prolyl 3-hydroxylases” (priority 2004, published 2005).

Experiments:
[1] = molecular target: T1, [2,3-3H]-L-proline-labeled procollagen substrate (Gallus gallus, UniProt Q6JHU8); assay: Prolyl 3-hydroxylase activity assay, release of tritiated water (THO) from labeled procollagen substrate; assay type: biochemical, chicken; details: same Km expressed per ml reaction volume
T1 construct: Purified P3H1 from 15-day-old chick embryos was tested for its enzymatic activity using a labeled procollagen substrate; from tissue; host or cells: 15 day-old chick embryos: rER-enriched extract, gelatin-Sepharose, then 1C10 antibody column eluted at pH 2.5
T1 sequence (Q6JHU8 15-725): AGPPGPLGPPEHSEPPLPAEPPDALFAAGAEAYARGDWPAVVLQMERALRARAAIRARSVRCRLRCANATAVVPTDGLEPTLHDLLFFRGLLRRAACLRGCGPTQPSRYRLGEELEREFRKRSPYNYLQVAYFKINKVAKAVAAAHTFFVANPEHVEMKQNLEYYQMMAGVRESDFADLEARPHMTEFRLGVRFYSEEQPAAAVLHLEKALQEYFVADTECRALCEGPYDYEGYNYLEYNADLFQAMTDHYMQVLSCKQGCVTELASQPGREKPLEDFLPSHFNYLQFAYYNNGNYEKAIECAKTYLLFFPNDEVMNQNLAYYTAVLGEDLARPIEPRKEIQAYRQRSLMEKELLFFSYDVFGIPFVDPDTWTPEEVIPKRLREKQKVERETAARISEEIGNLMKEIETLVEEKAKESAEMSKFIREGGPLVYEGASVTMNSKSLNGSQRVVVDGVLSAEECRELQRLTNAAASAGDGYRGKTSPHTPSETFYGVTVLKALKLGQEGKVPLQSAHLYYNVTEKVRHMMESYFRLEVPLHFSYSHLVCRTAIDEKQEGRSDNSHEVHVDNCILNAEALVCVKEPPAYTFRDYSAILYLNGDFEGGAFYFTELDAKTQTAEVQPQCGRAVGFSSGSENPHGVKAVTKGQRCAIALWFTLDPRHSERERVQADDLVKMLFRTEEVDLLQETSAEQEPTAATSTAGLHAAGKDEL
Procedure: Prolyl 3-hydroxylase activity was measured based on the amount of tritiated water (THO) formed from a labeled procollagen substrate (Kivirikko et al. Matrix Biol, 16, 357-368 (1998); Risteli et al. Anal Biochem, 84, 423-431 (1978)) with the following modifications. [2,3-^3H]-L-Proline, 42 Ci/mmol, was purchased from Sigma.[2,3-^3H]-proline-labeled nonhydroxylated procollagen was prepared from the isolated cells of the leg tendons from 12 dozen 15 day-old chicken embryos (Berg et al., Biochemistry, 12, 3395-3401 (1973); Dehm et al. Biochim Biophys Acta, 264, 375-382 (1972); Kivirikko et al., Methods Enzymol, 82 Pt A, 245-304 (1982)). […]
The prolyl 3-hydroxylase reactions were performed as described previously (Kivirikko et al., 1982; Risteli et al., 1978; Tryggvason et al., 1976) but with the following modifications: the enzyme reaction was carried out for 60 minutes at 24° C. in a final volume of 2.0 mls containing 1×10^6 dpm [2,3-^3H]-L-proline-labeled substrate, 0.08 mM FeSO^4, 2 mM ascorbic acid, 0.5 mM 2-oxoglutarate, 0.2 mg/ml catalase, 2 mg/ml bovine serum albumin, 0.1 mM dithiothreitol, and 0.05 M Tris-HCl, pH 7.8. […] A 1.8 ml aliquot of the tritiated water was mixed with 10 mls Ecolume liquid scintillation cocktail (ICN) and counted in a Beckman LS5000TD liquid scintillation counter. […]

[2] = molecular target: T2, (Pro-Pro-Gly)10 substrate (Gallus gallus, UniProt Q6JHU8); assay: Prolyl 4-hydroxylase activity assay, hydroxylation-coupled decarboxylation of 2-oxo[1-14C]glutarate; assay type: biochemical; details: purified P3H1 enzyme
T2 construct: Purified P3H1 from 15-day-old chick embryos was tested for its enzymatic activity using a labeled procollagen substrate; from tissue; host or cells: 15 day-old chick embryos: rER-enriched extract, gelatin-Sepharose, then 1C10 antibody column eluted at pH 2.5
T2 sequence (Q6JHU8 15-725): T1 sequence (Q6JHU8 15-725)
Procedure: The prolyl 4-hydroxylase activity was assayed by a method based on the hydroxylation-coupled decarboxylation of 2-oxo[1-^14C]glutarate (Kivirikko et al., 1982). The reaction was performed in a final volume of 1.0 ml, which contained 0.1 mg (Pro-Pro-Gly)10.9H^2O as substrate, 2 mM ascorbic acid, 0.05 mM FeSO^4, 0.1 mM dithiothreitol, 2 mg/ml bovine serum albumin, 0.1 mg/ml catalase, 50 mM Tris-HCl, pH 7.8, and 0.1 mM 2-oxo[1-^14C]glutarate (100,000 dpm). The reaction was stopped by the addition of 1 ml of 1 M KH2PO4, pH 5.0.

B1: P3H1: prolyl 3-hydroxylase 1 purified from 15-day-old chick embryos, chicken homologue of leprecan (protein)
chain: T1 sequence (Q6JHU8 15-725)
B1 was tested, and the Km [1] was 89.5 μl of substrate per ml and the “prolyl 4-hydroxylase activity” value [2] was “did not have any prolyl 4-hydroxylase activity”.
